The results in this text go back to US8263340B2, “Constitutively active mutants of the prolactin receptor” (Institut National de la Sante et de la Recherche Medicale …, priority 2007, dated 2012).

For one data set, the system named is hPRL. Put plainly: Binding affinity of WT and mutated PRLR for hPRL, [125I]-hPRL competition with Scatchard analysis, stably transfected HEK 293 cell homogenates. The arrangement: species or system human. Particulars: stable HEK 293 clones, overnight at room temperature. On the procedure:
(§1) Binding affinities of mutated PRLR for hPRL were determined using cell homogenates of stably transfected HEK 293, following a procedure previously described (KINET et al., J Biol Chem, 274, 26033-26043, 1999). Briefly, recombinant hPRL, produced in bacteria E. coli using the pT7L expression vector, and purified as described previously (PARIS et al., Biotechnol Appl Biochem, 12, 436-449, 1990), was iodinated using the Iodogen method, and its specific activity was in the range of 4-5 μCi/μg. Binding assays were performed overnight at room temperature using 150-300 μg cell homogenate protein in the presence of 20,000-30,000 cpm [^125I]-hPRL and increasing concentrations of unlabeled hPRL (competitor). Scatchard analysis was performed to determine the binding affinity of mutated PRLR and the number of PRLR per cell in stable clones or populations.

In data set [1] the test system is Ba/F3 cells. Description: Cell cycle / apoptosis of transfected Ba/F3 stable populations by FACS (propidium iodine). Format: cell-based, murine. Particulars: minimal medium. An excerpt: The cell cycle of transfected Ba/F cells (stable populations) was studied by FACS analysis, using propidium iodine labelling as previously described (JEAY et al., Endocrinology 142:147-156, 2001). Cells were put in minimal medium, with or without PRL for the indicated time.

For data set [2], the system named is LHRE-luciferase reporter (Stat5). Description: LHRE-luciferase reporter assay in HEK 293 cells expressing WT or mutated hPRLR. Format: cell-based, human. From the text: The human PRLR cDNA inserted into the pc/DNA3 eukaryotic vector (InVitrogen, Carlsbad, Calif.) has been generated as described previously (LOCHNAN et al, Mol Cell Endocrinol 114:91-99, 1995; GOFFIN et al, J Biol Chem 271:16573-16579, 1996). The PRLR-responsive LHRE-luciferase reporter gene carries the sequence encoding the firefly luciferase gene under the control of a 6-repeat sequence of the lactogenic hormone response element (LHRE) followed by the minimal thymidine kinase promoter (GOFFIN et al., J Biol Chem, 271, 16573-16579, 1996). LHRE is the DNA binding element of the signal transducer and activator of transcription Stat5, one of the signaling proteins activated by the PRLR once it is activated (WAKAO et al, EMBO J. 13, 2182-2191, 1994).
Cells were routinely cultured in DMEM medium supplemented with 10% FCS, 2 mM glutamine, 50 U/mL penicillin, 50 μg/mL streptomycin. Cells were co-transfected, using the lipofectamine method with two or three plasmids, one encoding the receptor of interest, one encoding the LHRE-firefly luciferase vector as a reporter of PRLR-mediated a effects, and one encoding the Renilla Luciferase which is expressed in a PRL-independent manner and serves as an internal control of transfection efficiency (DOS SANTOS et al., Nat Genet, 36, 720-724, 2004).
After trypsinization, cells were counted and aliquoted in 96-well plates at a density of 50,000 cells/100 μL/well. Plating medium contained 0.5% FCS to allow cell adhesion. Six to eighteen hours (overnight) after plating, cells were stimulated by addition to each well of 100 μL of PRL (1 μg/ml) diluted in FCS-free medium. After 24 hours of stimulation, culture medium was aspirated and cells were lyzed for at least 10 minutes in 50-100 μL of lysis buffer (Promega). Luciferase activity (only firefly luciferase for stable clones, and both firefly and renilla luciferases for transient transfections) for each experimental condition was counted in 10-20 μL of cell lysates for 10 seconds using a luminometer (Lumat LB 9501, Berthold, Nashua, N.H.). […]

Data set [3] relates to Ba/F3 cells. The data set is classed as cell-based, murine. Particulars: 1% FCS; for constitutive proliferation / survival: absence of PRL. On the procedure: Ba/F3 cells are a pro-B murine cell line dependent on IL-3 for growth. Cells were transfected by electroporation using 5-20 μg of plasmid encoding the WT or mutated human PRLR(CMV promoter), then the populations stably expressing the receptor was selected by several passages in G418-containing medium. Ba/F3-hPRLR cells were routinely maintained in RPMI 1640 medium supplemented with 10% heat-inactivated FCS, 2 mM glutamine, 50 U/mL penicillin, 50 μg/mL streptomycin, 700 μg/mL G-418 (for selection of stably transfected cells), and 10-100 ng/mL WT hPRL instead of IL-3 as the growth factor.
(§2) Cells were starved for 6 hours in 1% FCS RPMI medium with additives (no PRL), then distributed in 96 well-plates at a density of 5×10^4 cells/well in a final volume of 100 μL. One hundred μL, of [2×] hPRL (and/or antagonist) diluted in the same medium were added after starvation period. Cell survival/proliferation was estimated after 2-3 days of hormonal stimulation by adding 10-20 μL, of WST-1 tetrazolium salt, which is metabolized by living cells (BERNICHTEIN et al., Endocrine, 20, 177-190, 2003). Optical density at 450 nm (OD450) was measured after 1-3 hours of colorimetric reaction using an ELISA plate reader. The experiments were routinely performed at least three times in triplicate or quadruplicate.

The next data set deals with mutant I76V. Put plainly: Effect of PRLR inhibitors on proliferation of Ba/F3 cells expressing mutant I76V. The data set is classed as cell-based, murine. Particulars: 3 days. On the procedure:
as §2
Proliferation of stable Ba/F3 cell populations was evaluated in poor medium (1% FCS) in the presence of WT hPRL, or of the PRLR antagonist De11-9-G129R-hPRL, or of AG490, for 3 days. The results are illustrated in FIGS. 12 and 13.

The test system of a further data set is WT PRLR cells. Put plainly: Effect of PRLR inhibitors on proliferation of Ba/F3 cells expressing WT PRLR. Particulars: no PRL, 1% FCS, 3 days. Format: cell-based, murine. On the procedure:
as §2, with “([…]” for “(BERNICHTEIN”, “quadruplicate. Proliferation of stable Ba/F3 cell populations was evaluated in poor medium (1% FCS) in the presence of WT hPRL, or of the PRLR antagonist De11-9-G129R-hPRL, or of AG490, for 3 days. The results are illustrated in FIGS. 12 and 13.” for “quadruplicate.”

The next data set concerns mutated PRLR. Put plainly: Binding affinity of the PRLR antagonist for mutated and WT PRLR (not shown). The arrangement: species or system human. On the procedure: as §1
Similarly, the affinity for the pure PRLR antagonist De11-9-G129R-hPRL (BERNICHTEIN et al., J Biol Chem, 278, 35988-35999, 2003) is also identical for the mutants and the receptors (not shown).

The next data set concerns Stat5. Description: Stat5 phosphorylation by immunoprecipitation and western blot in Ba/F3 populations. The data set is classed as cell-based, murine. How it is done: Stat5 is the main PRLR signalling mediator, and a known anti-apoptotic factor in Baf cells. Its phosphorylation was analyzed by immunoprecipitation and western blot, using the protocol described in Example 3 for the analysis of PRLR phosphorylation.
Immunoprecipitation was performed with anti-STAT5 antibodies (c17, SantaCruz). The membranes were incubated with anti-PY antibody (4G10, Upstate), and when required re-incubated with anti-STAT5 (c17, SantaCruz) antibodies.
The results are illustrated by FIG. 16: (−)=no PRL, (+)=0,5 μg/ml PRL.
Background: In western blotting, separated proteins are transferred to a membrane and probed.

In the next data set the test system is PRLR phosphorylation. Put plainly: PRLR tyrosine phosphorylation by immunoprecipitation and western blot in transfected HEK 293 cells. Format: cell-based, human. On the procedure: Receptor phosphorylation on tyrosine residues is the first step of PRLR activation.
Transient or stable transfected cells were starved overnight in FCS-free medium before hormonal stimulation. The next day, cells were stimulated (5-30 min at 37° C.) using various concentrations of WT hPRL as indicated. At the end of the stimulation, cells were washed twice with ice-cold saline buffer and cell pellets were kept frozen until used. Cells were solubilized in 0.5-1 ml lysis buffer (30 min under gentle rotation at 4° C.). Lysates were centrifuged for 10 min at 13,000×g, then supernatants were quantified for their protein content by Bradford assay and used for immunoprecipitation.
For immunoprecipitation studies, 0.5-1 mg of total lysate were incubated with anti-human PRLR (anti extracellular domain of the human PRLR, Zymed, clone 1A2B1), used at 1-5 μl/ml. After overnight rotation at 4° C., immune complexes were captured using 20 μl Protein A Sepharose slurry for 1 additional hour rotation at 4° C. Protein A complexes were precipitated by centrifugation, pellets were washed 3 times in lysis buffer and boiled in 15 μl reducing SDS sample buffer for 5 min at 95° C. Finally, immunoprecipitated samples were analysed using 7.5% SDS-PAGE. Electrophoretic transfer onto nitrocellulose membranes (Bio-Rad) was performed as described (LLOVERA et al., Oncogene, 19, 4695-4705, 2000). […]

As usually defined, the Kd is a measure of binding affinity in units of concentration. The molecule “wild-type PRLR: wild-type human prolactin receptor (isoform 1), SEQ ID NO: 1, used as control” yielded a Kd with hPRL of 0.64 nM. For the same molecule, the apoptosis in the data set with Ba/F3 cells [1] (absence of PRL, 30 h) came out at 50%. The “effect of PRL on apoptosis” value in the data set on Ba/F3 cells [1] (with PRL) is given as “PRL prevents this effect”. In addition, the “basal activity (unstimulated cells), luciferase” value in [2] (no PRL, compared to WT receptor) was “devoid of activity”. For the same molecule, in data set [2] (stable clones, PRL 1 μg/ml, 24 hours), the “fold stimulation induced by PRL” value is listed as 8 fold. Moreover, the “constitutive proliferation / survival” value in the data set on Ba/F3 cells [3] is recorded as “hardly survived”.

As for `N#CC(=Cc1ccc(O)c(O)c1)C(=O)NCc1ccccc1` [AG490, N-Benzyl-3,4-dihydroxy-benzylidenecyanoacetamide, reference compound], in the data set on mutant I76V (20 μM AG490, no PRL), the “inhibition of constitutive activation (proliferation) of mutant I76V” value was “partially inhibited”. In addition, the “effect on basal proliferation of WT PRLR cells” value in the data set on WT PRLR cells is on record as “no effect”.

B1: De11-9-G129R-hPRL: pure PRLR antagonist, variant of human prolactin, which interferes with the mechanism of receptor activation by PRL (protein)
chain: RCQVTLRDLFDRAVVLSHYIHNLSSEMFSEFDKRYTHGRGFITKAINSCHTSSLATPEDKEQAQQMNQKDFLSLIVSILRSWNEPLYHLVTEVRGMQEAPEAILSKAVEIEEQTKRLLERMELIVSQVHPETKENEIYPVWSGLPSLQMADEESRLSAYYNLLHCLRRDSHKIDNYLKLLKCRIIHNNNC
On to B1, for which, in the data set on mutant I76V (10 μg/ml antagonist, no PRL), the “inhibition of constitutive activation (proliferation) of mutant I76V” value is “inhibited”. Besides, the “affinity for mutants versus WT receptor” value with mutated PRLR is listed as “identical”. Further, the “effect on basal proliferation of WT PRLR cells” value with WT PRLR cells is reported as “no effect”.

B2: I76V: mutant human prolactin receptor wherein the Ile residue at position 76 is substituted by a Val residue (protein)
chain: QLPPGKPEIFKCRSPNKETFTCWWRPGTDGGLPTNYSLTYHREGETLMHECPDYITGGPNSCHFGKQYTSMWRTYVMMVNATNQMGSSFSDELYVDVTYIVQPDPPLELAVEVKQPEDRKPYLWIKWSPPTLIDLKTGWFTLLYEIRLKPEKAAEWEIHFAGQQTEFKILSLHPGQKYLVQVRCKPDHGYWSAWSPATFIQIPSDFTMNDTTVWISVAVLSAVICLIIVWAVALKGYSMVTCIFPPVPGPKIKGFDAHLLEKGKSEELLSALGCQDFPPTSDYEDLLVEYLEVDDSEDQHLMSVHSKEHPSQGMKPTYLDPDTDSGRGSCDSPSLLSEKCEEPQANPSTFYDPEVIEKPENPETTHTWDPQCISMEGKIPYFHAGGSKCSTWPLPQPSQHNPRSSYHNITDVCELAVGPAGAPATLLNEAGKDALKSSQTIKSREEGKATQQREVESFHSETDQDTPWLLPQEKTPFGSAKPLDYVEIHKVNKDGALSLLPKQRENSGKPKKPGTPENNKEYAKVSGVMDNNILVLVPDPHAKNVACFEESAKEAPPSLEQNQAEKALANFTATSSKCRLQLGGLDYLDPACFTHSFH
In general, fold induction refers to the signal under treatment as a multiple of the control signal. High values mean a strong induction, low ones a weak induction. Take B2: in the data set with hPRL, the Kd is 0.44 nM. In addition, the “effect of PRL stimulation on phosphorylation of Stat5” value with Stat5 (0,5 μg/ml PRL) is given as “can be increased”. Moreover, the “phosphorylation of Stat5” value in the data set on Stat5 (absence of PRL stimulation) is reported as “moderate”. The molecule further returned a fold induction in data set [2] (transient transfections, normalized firefly/renilla luciferase) of 5 fold. For the same molecule, the “effect of PRL on proliferation” value in the data set on Ba/F3 cells [3] (10 or 100 ng/ml hPRL) is “further increased”. Besides, the “constitutive proliferation / survival” value with Ba/F3 cells [3] was “moderate but significant constitutive proliferation”. In the data set on PRLR phosphorylation (absence of PRL stimulation), the “constitutive phosphorylation of PRLR” value is on record as “weaker”. For the same molecule, the “effect of PRL stimulation on PRLR phosphorylation” value with PRLR phosphorylation (with PRL stimulation) is reported as “increased phosphorylation”.
